Measured values reported in publication PMC3481350.

Biological target: Deg2 protease (Arabidopsis thaliana), mature Deg2 (Arabidopsis thaliana)
Assay: SEC + other: dynamic light scattering

For “Deg2 protease (Arabidopsis thaliana), mature Deg2 (enzyme)”, the stoichiometry N was 6.
